# Laboratory results: the supplement of paper PMC9170038
# System: MS2 coat protein
# Assay: apparent KD of MS2 coat protein; designed switch direction (-1 OFF switch, 1 ON switch): -1; higher = weaker reporter binding
# Procedure, shortened: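 SNAP-549-labelled MS2 coat protein was titrated, doubling from 0.7 or 1.5 nM to 3 µM, over designed RNA switches transcribed on Illumina chips by stalled E. coli RNA polymerase. Runs were done without input, with 200 uM small-molecule ligand, or with an oligonucleotide input. Apparent KD is the per-design median over clusters of curve-fitted normalised fluorescence.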
# [1] = Eterna round: R95, input ligand: FMN 200 uM
# [2] = Eterna round: R95, input ligand: microRNA oligo, concentration not stated
# [3] = Eterna round: R95, input ligand: none
sequence,measurement,setting,value
"GUGAUCUAUCAUGGAAUAAACAUGAGGAUCACCCAUGUAGACAAGUUUUUUGCUCGUCUUAUAAUAAGAUAGAUCAC [Antenna 14 - Jieux - Sensor, turn-off variant 1] (Eterna round: R97, puzzle: Sensor, turn-off variant 1)",apparent KD of MS2 coat protein,input ligand: FMN 200 uM,15.5 nM
same,apparent KD of MS2 coat protein,input ligand: none,14.2 nM
"GUGAUCUAUCAUGUAAUGAACAUGAGGAUCACCCAUGUAGGCAGGUUUUUUGCUCGUCACAUAAUAAGAUAGAUCAC [Antenna 20 - Jieux - Sensor, turn-off variant 1] (Eterna round: R97, puzzle: Sensor, turn-off variant 1)",apparent KD of MS2 coat protein,input ligand: FMN 200 uM,18.6 nM
same,apparent KD of MS2 coat protein,input ligand: none,24.2 nM
GUGGAGUAAGGAUAUACAUGAGGAUCACCCAUGUAAGGGAAGGUGAUGGGAGUAGAUAGUAGAAGGUACGAGGA [JR_Exclu3_Sub067] (puzzle: Exclusion 3),apparent KD of MS2 coat protein,[1],58.3 nM
same,apparent KD of MS2 coat protein,[2],97.2 nM
same,apparent KD of MS2 coat protein,[3],100 nM
GUGGCACAUGAGGAUCACCCAUGUCAGGAUAUCGCGUGGUUUUUUGCGGCCGCGCGCGCGAGAAGGGACGUCUU (puzzle: Exclusion 1),apparent KD of MS2 coat protein,[2],31.1 nM
"GUGGCACUAGUGAGGAUAUGGAAAUUGACAGAUAUCCAGAAGGCACAUGAGGAUCACCCAUGUCGAAUCCAGCA [Eternabot (L1) Solution 81] (Eterna round: R97, puzzle: Brourd's mod of Exclusion 4)",apparent KD of MS2 coat protein,input ligand: FMN 200 uM,36.9 nM
same,apparent KD of MS2 coat protein,input ligand: none,22.8 nM
GUGUAACAAGGAUAUACAUGAGGAUCACCCAUGUGAAUAAGAUUGAAUAAGAUAAAGUGUAGAAGGUGUAGUGU [Excluse me!!! 9 - Jieux - Exclusion 3] (puzzle: Exclusion 3),apparent KD of MS2 coat protein,[1],32.5 nM
same,apparent KD of MS2 coat protein,[2],31.6 nM
same,apparent KD of MS2 coat protein,[3],37.1 nM
"GUGUAACUACACGGGCUCAACAUGAGGAUCACCCAUGUCAUACACGCAAGCUCUUUGCUUGUCUUAUCUGUCCGUGA [Erriusti] (puzzle: Sensor v3, turn-off variant 1)",apparent KD of MS2 coat protein,[1],16.8 nM
same,apparent KD of MS2 coat protein,[2],16.6 nM
same,apparent KD of MS2 coat protein,[3],14.5 nM
"GUGUAACUACACGGGCUCAACAUGAGGAUCACCCAUGUCAUACACGCAAGCUUUUUGCUUGUCUUAUCUGUCCGUGU [Cegeesre] (puzzle: Sensor v3, turn-off variant 1)",apparent KD of MS2 coat protein,[1],12.4 nM
same,apparent KD of MS2 coat protein,[2],12.2 nM
same,apparent KD of MS2 coat protein,[3],11.5 nM
GUGUACAGAGGAUAUACUUAUGGAGUCACGAAAGUGGCUUCACAUGAGGAUCACCCAUGUAGAAGGCUGUACAC [Dot plot directed v11] (puzzle: Exclusion 2),apparent KD of MS2 coat protein,[2],23.7 nM
GUGUACCGAGGAUAUGCUGGAAUCUAGCGAAGCUAGGUUCCACAUGAGGAUCACCCAUGUAGAAGGUGGUACAC [Dot plot directed A v7] (puzzle: Exclusion 2),apparent KD of MS2 coat protein,[2],55.5 nM
GUGUAGAGAGGAUAUACAUGAGGAUCACCCAUGUGAAUAAGAUAGAAUAAGAUAAAGUGUAGAAGGUUUAGUGU [Excluse me!!! 18 - Jieux - Exclusion 3] (puzzle: Exclusion 3),apparent KD of MS2 coat protein,[2],38.4 nM
GUGUAGAUAGGAUAUACAUGAGGAUCACCCAUGUGAAUAAGAUAGAAUAAGAUAAAGUGUAGAAGGGUUAGUGU [Excluse me!!! 19 - Jieux - Exclusion 3] (puzzle: Exclusion 3),apparent KD of MS2 coat protein,[1],34.3 nM
same,apparent KD of MS2 coat protein,[2],30.2 nM
same,apparent KD of MS2 coat protein,[3],39.9 nM
"GUGUUGUCAGGAUAUCUUACAUAACUAUCGUUGUUACCAUUGGAGAAGGGACAUGAGGAUCACCCAUGUUUUCG [tap-tap-tappy50] (Eterna round: R97, puzzle: Exclusion 4)",apparent KD of MS2 coat protein,input ligand: FMN 200 uM,23.9 nM
same,apparent KD of MS2 coat protein,input ligand: none,24.6 nM
"GUUAACGUAGGAUAUUAGUACAUACACAUGAGGAUCACCCAUGUUUAGUGGGUCUAAGAAUAAGAAGGGCGAAGAA [EX5 #25] (Eterna round: R97, puzzle: Exclusion 5)",apparent KD of MS2 coat protein,input ligand: FMN 200 uM,117 nM
same,apparent KD of MS2 coat protein,input ligand: none,130 nM
GUUAAGGUAGGAUAUACGAUAAUAGAGGGUAGAUAUAUAACACAUGAGGAUCACCCAUGUAGAAGGACCAAUUG [Mat - Exclusion 2 - Mod of my Tesla design - D58] (puzzle: Exclusion 2),apparent KD of MS2 coat protein,[1],91.3 nM
same,apparent KD of MS2 coat protein,[2],41.2 nM
same,apparent KD of MS2 coat protein,[3],36.8 nM
GUUAAGGUAGGAUAUACGAUAAUAUAGGGUAGAUAUAGAACACAUGAGGAUCACCCAUGUAGAAGGACCAAUUG [Mat - Exclusion 2 - Mod of my Tesla design - D54] (puzzle: Exclusion 2),apparent KD of MS2 coat protein,[2],28.6 nM
GUUACACAUGAGGAUCACCCAUGUAAGGAUAUGCUGCGGUCGCGAAAACGUGACUGCAGCAGAAGGUACACAUG [Mat - Mod of JL D61] (puzzle: Exclusion 1),apparent KD of MS2 coat protein,[2],135 nM
GUUACACAUGAGGAUCACCCAUGUAAGGAUAUGCUGCGGUCGCGCUGACGUGACUGCAGCAGAAGGUACAAUUG (puzzle: Exclusion 1),apparent KD of MS2 coat protein,[2],67.6 nM
"GUUCGGGCAGGAUAUACAUGAGGAUCACCCAUGUGUGUCCAUACGCGUGAGUCUUCGUGUAGAAGGGUUUGGGC [-30.5, -27.8 kcal, 20% A] (Eterna round: R97, puzzle: Exclusion 3)",apparent KD of MS2 coat protein,input ligand: FMN 200 uM,27.3 nM
same,apparent KD of MS2 coat protein,input ligand: none,21.1 nM
